Values belong to the molecule of their own block, whether it stands above or below them.
Columns and labels:
[1] = tested on: GFP-14-3-3β and its binding proteins; experiment: GFP-14-3-3β co-IP with LC-MS/MS label-free quantification, untreated versus PP1c-treated; design: species or system human; conditions: PP1 vs untreated; label-free quantification
Protocol: (§1) HeLa Kyoto cells expressing transiently transfected pEGFP(C1)-14-3-3β or pEGFP(C1) control plasmid, were incubated with 20 nM Calyculin A (# 9902 S, Cell Signaling Technology) for 12 min. Cells were washed twice on ice with cold PBS and after addition of 500 µL lysis buffer (100 mM NaCl, 10 mM Tris, 0.1% IGEPAL, 1 mM EDTA, 1 mM EGTA, 20 nM Calyculin A, 1x cOmplete Mini protease inhibitor cocktail (Sigma), 1 mM DTT, 1 mM MnCl2) cells were scraped from plates, lysed by 10 pushes through an injection needle (21 G, BD) and the insoluble fraction was pelleted by centrifugation (10 min, 10^4 rcf, 4 °C). Supernatants were then subjected to incubation with 1 µM recombinant phosphatase or buffer for 1 h at 30 °C. Next, we subjected samples to immunoprecipitation using α-GFP nanobodies covalently coupled to agarose beads (2 h, 4 °C, obtained from the EMBL PEPcore Core Facility). Beads were then washed three times with lysis buffer and samples were eluted in 1x LDS sample buffer (Thermo Fisher Scientific) by heating to 70 °C for 10 min.
(§2) The samples were then reduced with 25 mM dithiothreitol (10 min at 70 °C) and alkylated with 55 mM chloroacetamide (room temperature, 30 min, in the dark). Proteins were run on a precast 4–12% NuPAGE gel (ThermoFisher Scientific) for about 1 cm to concentrate the sample prior to in-gel tryptic digestion, which was performed according to the standard procedures. The peptides obtained were dried to completeness and resuspended in 12 µL of buffer A (0.1% FA), and 5 µL of sample were injected per MS measurement. The experiment was carried out in three independent replicates.
(§3) The samples were analyzed by LC-MS/MS on a Dionex Ultimate 3000 nano-HPLC coupled online to a Fusion Lumos Tribrid mass spectrometer (Thermo Fisher Scientific). Peptides were delivered to a trap column (75 µm × 2 cm, packed in-house with 5 µm C18 resin; Reprosil PUR AQ, Dr. Maisch) and washed using 0.1% FA at a flow rate of 5 µL/min for 10 min. Subsequently, peptides were transferred to an analytical column (75 µm × 45 cm, packed in-house with 3 µm C18 resin; Reprosil Gold) applying a flow rate of 300 nL/min and separated using a 60 min linear gradient from 4% to 32% LC solvent B (0.1% FA, 5% DMSO in ACN) in LC solvent A (0.1% FA in 5% DMSO). The eluate from the analytical column was sprayed via a stainless steel emitter (Thermo Fisher Scientific) at a source voltage of 2.1 kV into the mass spectrometer. The transfer capillary was heated to 275 °C. The Fusion Lumos was operated in positive ionization mode and data-dependent acquisition (DDA), automatically switching between MS1 and MS2 spectrum acquisition. Full scan MS1 spectra were recorded in the Orbitrap from 360 to 1300 m/z at a resolution of 60k (automatic gain control (AGC) target value of 4e5 charges, maximum injection time (maxIT) of 50 ms). Up to 20 peptide precursors were isolated (isolation window, 1.7 m/z; maximum injection time, 25 ms; and AGC value, 1e5), fragmented by high-energy collision-induced dissociation (HCD) using 30% normalized collision energy (NCE), and analyzed at a resolution of 15k in the Orbitrap. Precursor ions that were singly charged, unassigned, or with charge states >6+ were excluded. The dynamic exclusion duration of fragmented precursor ions was 20 s.
(§4) Peptide and protein identification and LFQ were performed using MaxQuant software (version 1.6.1.0)[64] by searching the data against all canonical protein sequences as annotated in the Swissprot reference database (human proteins only, 20193 entries, downloaded 22 March 2016, internally annotated with PFAM domains) using the embedded search engine Andromeda[65]. The MaxQuant search was performed using two variable modifications; oxidation of methionine and N-terminal protein acetylation. Carbamidomethylation on cysteines was specified as a fixed modification. Trypsin (Trypsin/P) was specified as the proteolytic enzyme with up to two allowed missed cleavage sites.

GFP-14-3-3β = GFP-14-3-3β co-IP with LC-MS/MS, untreated GFP-14-3-3β versus GFP control (14-3-3 interactome); assay type: binding, human; conditions: untreated vs GFP; label-free quantification
Protocol: as §1, §2, §3, §4

Difference (log2), PP1 vs untreated [1]: 1.257 log2
B1: PRSS56 (protein, UniProt P0CW18 20-603, looked up)
Serine protease 56: HPLYTRLPPSALQVLSAQGTQALQAAQRSAQWAINRVAMEIQHRSHECRGSGRPRPQALLQDPPEPGPCGERRPSTANVTRAHGRIVGGSAAPPGAWPWLVRLQLGGQPLCGGVLVAASWVLTAAHCFVGAPNELLWTVTLAEGSRGEQAEEVPVNRILPHPKFDPRTFHNDLALVQLWTPVSPGGSARPVCLPQEPQEPPAGTACAIAGWGALFEDGPEAEAVREARVPLLSTDTCRRALGPGLRPSTMLCAGYLAGGVDSCQGDSGGPLTCSEPGPRPREVLFGVTSWGDGCGEPGKPGVYTRVAVFKDWLQEQMSASSSREPSCRELLAWDPPQELQADAARLCAFYARLCPGSQGACARLAHQQCLQRRRRCELRSLAHTLLGLLRNAQELLGPRPGLRRLAPALALPAPALRESPLHPARELRLHSGSRAAGTRFPKRRPEPRGEANGCPGLEPLRQKLAALQGAHAWILQVPSEHLAMNFHEVLADLGSKTLTGLFRAWVRAGLGGRHVAFSGLVGLEPATLARSLPRLLVQALQAFRVAALAEGEPEGPWMDVGQGPGLERKGHHPLNPQVPPARQP
Difference (log2), untreated vs GFP (GFP-14-3-3β): -0.4107 log2

Difference (log2), PP1 vs untreated [1]: 1.256 log2
B2: PFKL (protein, UniProt P17858 2-780, looked up)
ATP-dependent …: AAVDLEKLRASGAGKAIGVLTSGGDAQGMNAAVRAVTRMGIYVGAKVFLIYEGYEGLVEGGENIKQANWLSVSNIIQLGGTIIGSARCKAFTTREGRRAAAYNLVQHGITNLCVIGGDGSLTGANIFRSEWGSLLEELVAEGKISETTARTYSHLNIAGLVGSIDNDFCGTDMTIGTDSALHRIMEVIDAITTTAQSHQRTFVLEVMGRHCGYLALVSALASGADWLFIPEAPPEDGWENFMCERLGETRSRGSRLNIIIIAEGAIDRNGKPISSSYVKDLVVQRLGFDTRVTVLGHVQRGGTPSAFDRILSSKMGMEAVMALLEATPDTPACVVTLSGNQSVRLPLMECVQMTKEVQKAMDDKRFDEATQLRGGSFENNWNIYKLLAHQKPPKEKSNFSLAILNVGAPAAGMNAAVRSAVRTGISHGHTVYVVHDGFEGLAKGQVQEVGWHDVAGWLGRGGSMLGTKRTLPKGQLESIVENIRIYGIHALLVVGGFEAYEGVLQLVEARGRYEELCIVMCVIPATISNNVPGTDFSLGSDTAVNAAMESCDRIKQSASGTKRRVFIVETMGGYCGYLATVTGIAVGADAAYVFEDPFNIHDLKVNVEHMTEKMKTDIQRGLVLRNEKCHDYYTTEFLYNLYSSEGKGVFDCRTNVLGHLQQGGAPTPFDRNYGTKLGVKAMLWLSEKLREVYRKGRVFANAPDSACVIGLKKKAVAFSPVTELKKDTDFEHRMPREQWWLSLRLMLKMLAQYRISMAAYVSGELEHVTRRTLSMDKGF
Difference (log2), untreated vs GFP (GFP-14-3-3β): -0.3869 log2
